± gives the half width of the 95% confidence interval.
Legend:
[1] = folding stability dG unfold from trypsin proteolysis; higher = more stable
Method in brief: (§1)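 Only designs with AlphaFold2 dimer inter-PAE above 15 were retained; each was a mini-protein under 80 residues with no cysteine, in a PA-tagged cDNA display construct. After digestion with trypsin and chymotrypsin and sequencing, K50 was inferred by Bayesian fitting of counts, and unfolding free energy was derived per protease or combined against a sequence-predicted unfolded-state K50 and a shared folded-state K50.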

[2] = folding stability dG unfold from chymotrypsin proteolysis; higher = more stable
Method in brief: as §1

[3] = folding stability dG unfold (combined trypsin and chymotrypsin); higher = more stable
Method in brief: as §1

SAGGSAGGANDPEMPKPKRVEITIPPDEEIRNPNGKEMPVEQAREYAEYLADRYGIDVEITISPSAGGSAGG [r6_162_TrROS]
folding stability dG unfold [1]: -0.406 ± 0.29 kcal/mol
folding stability dG unfold [2]: 0.215 ± 0.43 kcal/mol
folding stability dG unfold [3]: -0.202 ± 0.41 kcal/mol

SAGGSAGGANTVTIELPNGFRITLNDDGTITISYYDPETGELVKTVTIKLPPPPPVVVVHEDDKSAGGSAGG [r6_572_TrROS_Hall]
folding stability dG unfold [1]: 3.1 ± 0.23 kcal/mol
folding stability dG unfold [2]: 3.39 ± 0.077 kcal/mol
folding stability dG unfold [3]: 3.35 ± 0.12 kcal/mol

SAGGSAGGAPPDLKVTVKPTPGPGTGQRYTVVVELDEGGVLPFPFSFASPSEVEKAAKAIAALLSAGGSAGG [r6_996_TrMRF]
folding stability dG unfold [1]: 1.02 ± 0.056 kcal/mol
folding stability dG unfold [2]: 1.57 ± 0.14 kcal/mol
folding stability dG unfold [3]: 1.31 ± 0.14 kcal/mol

SAGGSAGGATTEINLPLKVPGSGVTITKMTYDPNKDVYFVTATFPDGTKKTIKVKSLEELKKLLSAGGSAGG [r6_548_JUSTAS]
folding stability dG unfold [1]: 3.83 ± 0.24 kcal/mol
folding stability dG unfold [2]: 2.52 ± 0.046 kcal/mol
folding stability dG unfold [3]: 3.11 ± 0.15 kcal/mol

SAGGSAGGAVVKLPGNTVMTIDPSTGIAYVTDPSGKVTKYTLTKFPDKTLWEEEPVEEIPSDLLSAGGSAGG [r6_324_JUSTAS]
folding stability dG unfold [1]: 1.53 ± 0.09 kcal/mol
folding stability dG unfold [2]: 1.44 ± 0.16 kcal/mol
folding stability dG unfold [3]: 1.55 ± 0.23 kcal/mol

SAGGSAGGDAKTFEVEGMTVFVDPETGLAVAEFPDGYLALGRIEVFGPGVAKVDLEIFPLPPGLSAGGSAGG [r6_670_TrMRF]
folding stability dG unfold [1]: 1.74 ± 0.11 kcal/mol
folding stability dG unfold [2]: 1.53 ± 0.071 kcal/mol
folding stability dG unfold [3]: 1.61 ± 0.13 kcal/mol

SAGGSAGGDEVKIEVEVKKVKVKVRVRVKNEDGEEKEVEKEFEVEVVKVKIEFKSPEEAKKLGLSAGGSAGG [r6_149_TrROS_Hall]
folding stability dG unfold [1]: 1.14 ± 0.088 kcal/mol
folding stability dG unfold [2]: 0.144 ± 0.42 kcal/mol
folding stability dG unfold [3]: 1.11 ± 0.27 kcal/mol

SAGGSAGGDKNAKPQPIMIAIEIYNPNGRKQEHTFPFESLDDAKEFIEDWLPPGYQVKVDIYPVSAGGSAGG [r6_290_TrROS]
folding stability dG unfold [1]: 0.322 ± 0.1 kcal/mol
folding stability dG unfold [2]: 0.709 ± 0.07 kcal/mol
folding stability dG unfold [3]: 0.693 ± 0.16 kcal/mol

SAGGSAGGDPGDDYKIGVFPFTFLFGGYRISIPIFRITKDGKPQHIFMAIEIEPLPPPKDPGDNSAGGSAGG [r6_684_TrROS]
folding stability dG unfold [1]: 3.21 ± 0.093 kcal/mol
folding stability dG unfold [2]: 4 ± 0.087 kcal/mol
folding stability dG unfold [3]: 3.71 ± 0.15 kcal/mol

SAGGSAGGDRLEVVAPVDDPVEQAREFAERLREEFRRRYPDREIDRVEVFYDPGARTLHVRLYPSAGGSAGG [r6_662_TrMRF]
folding stability dG unfold [1]: 2.12 ± 0.026 kcal/mol
folding stability dG unfold [2]: 2.704 ± 0.024 kcal/mol
folding stability dG unfold [3]: 2.51 ± 0.066 kcal/mol

SAGGSAGGEATEGTLIVGGKPVRVTVERTPEGGRIATVELPNGVTVVARLNPVTRGAEILEVVESAGGSAGG [r6_290_TrMRF]
folding stability dG unfold [1]: 0.773 ± 0.05 kcal/mol
folding stability dG unfold [2]: 1.45 ± 0.086 kcal/mol
folding stability dG unfold [3]: 1.17 ± 0.13 kcal/mol

SAGGSAGGEDKYLVVEFTVPEGKAEEFIAEVKKKIPPNWKIERVEIVEKTEDGLYRVRVVLKPGSAGGSAGG [r6_340_TrMRF]
folding stability dG unfold [1]: 4.5 ± 0.14 kcal/mol
folding stability dG unfold [2]: 4.88 ± 0.049 kcal/mol
folding stability dG unfold [3]: 4.87 ± 0.086 kcal/mol

SAGGSAGGEEAREAIEQELRARGINVTEIKVEEKKLTPDKTVVTFTVTARLPDSELTSTFTVVDSAGGSAGG [r6_533_JUSTAS]
folding stability dG unfold [1]: 0.141 ± 0.19 kcal/mol
folding stability dG unfold [2]: -0.92 ± 0.81 kcal/mol
folding stability dG unfold [3]: -0.173 ± 0.13 kcal/mol

SAGGSAGGEFTVTVTIEKDEEKGFIRIPISVSLPSSAFVPKTVEFLEFAKTLKENLPELEVDASSAGGSAGG [r6_102_TrMRF]
folding stability dG unfold [1]: 0.609 ± 0.018 kcal/mol
folding stability dG unfold [2]: 0.65 ± 0.075 kcal/mol
folding stability dG unfold [3]: 0.679 ± 0.038 kcal/mol

SAGGSAGGEIPPNIKKIETLPDDGWLMVKVDSPKDIREFFEDHGWEIKDVEEEGNTIHIPIKPKSAGGSAGG [r6_381_TrROS]
folding stability dG unfold [1]: 0.648 ± 0.072 kcal/mol
folding stability dG unfold [2]: 0.893 ± 0.24 kcal/mol
folding stability dG unfold [3]: 0.79 ± 0.25 kcal/mol

SAGGSAGGEKGYKLVEITIPVTVYHGNKPYTIPIPIKVKSPEEVEKLKKFIENTSYDPTSGKFSSAGGSAGG [r6_197_TrMRF]
folding stability dG unfold [1]: 0.607 ± 0.1 kcal/mol
folding stability dG unfold [2]: 1.28 ± 0.24 kcal/mol
folding stability dG unfold [3]: 1.02 ± 0.13 kcal/mol

SAGGSAGGEKPVVTRLELVETEEGLVRLRVELPDGELVEERRFPTLEEALAALPPGAKVEIVPLSAGGSAGG [r6_492_TrROS_Hall]
folding stability dG unfold [1]: 1.85 ± 0.032 kcal/mol
folding stability dG unfold [2]: 1.54 ± 0.01 kcal/mol
folding stability dG unfold [3]: 1.7 ± 0.032 kcal/mol

SAGGSAGGELEVEIVSVEFDEETKEIRIKIYVNGKLIEEKTIKIEPVKVYYKTKDGKKVSAEDLSAGGSAGG [r6_832_TrROS_Hall]
folding stability dG unfold [1]: 1.1 ± 0.089 kcal/mol
folding stability dG unfold [2]: 1.16 ± 0.26 kcal/mol
folding stability dG unfold [3]: 1 ± 0.19 kcal/mol

SAGGSAGGEPELNVLETLEETVDPNTGLTYTTELVQLPDGTLVTVKTLYDKATGTWTVLETTPESAGGSAGG [r6_262_JUSTAS]
folding stability dG unfold [1]: 2.4 ± 0.18 kcal/mol
folding stability dG unfold [2]: 2.07 ± 0.079 kcal/mol
folding stability dG unfold [3]: 2.18 ± 0.13 kcal/mol

SAGGSAGGEVEIEVTEEEEVPGLPDQEIVTKAKLPDGKTVTIKRTVDPKTGKVSVSFSVIEPPLSAGGSAGG [r6_337_JUSTAS]
folding stability dG unfold [1]: 0.44 ± 0.19 kcal/mol
folding stability dG unfold [2]: 0.355 ± 0.2 kcal/mol
folding stability dG unfold [3]: 0.363 ± 0.24 kcal/mol

SAGGSAGGEVKIEVNKEKGYLLITVPKEEAEEIAKALKEKFGIKEVKIEVDEETDEVHILVKLESAGGSAGG [r6_661_TrROS_Hall]
folding stability dG unfold [1]: 2.5 ± 0.14 kcal/mol
folding stability dG unfold [2]: 2.98 ± 0.12 kcal/mol
folding stability dG unfold [3]: 2.59 ± 0.27 kcal/mol

SAGGSAGGEVKTIEIEIEITDEDGRKYRIKMEAEVLPNGEIIIRMEIEDEETNETYEMTIVLKPSAGGSAGG [r6_726_TrROS_Hall]
folding stability dG unfold [1]: 3.57 ± 0.19 kcal/mol
folding stability dG unfold [2]: 4.55 ± 0.12 kcal/mol
folding stability dG unfold [3]: 4.35 ± 0.18 kcal/mol

SAGGSAGGEYELLTFTLEFEVPPEVEHVEFEAELEDFDEILEVRARPDPETGTVRVEIVARARPSAGGSAGG [r6_712_TrMRF]
folding stability dG unfold [1]: 1.46 ± 0.044 kcal/mol
folding stability dG unfold [2]: 2.62 ± 0.06 kcal/mol
folding stability dG unfold [3]: 2.28 ± 0.19 kcal/mol

SAGGSAGGFIEYDPKTGTITVTFPSSVSPEDVRAAIEAAGFPATPVAYSYDPSPPVRTVTFKVASAGGSAGG [r6_396_JUSTAS]
folding stability dG unfold [1]: 1.14 ± 0.02 kcal/mol
folding stability dG unfold [2]: 0.832 ± 0.11 kcal/mol
folding stability dG unfold [3]: 1.06 ± 0.092 kcal/mol

SAGGSAGGGAAPRTRVIEVLFPVPPDVTVEEIAERLRALYPDAVLVAEAERLPDGYVRVVVTLRSAGGSAGG [r6_566_TrMRF]
folding stability dG unfold [1]: 2.49 ± 0.031 kcal/mol
folding stability dG unfold [2]: 3.54 ± 0.078 kcal/mol
folding stability dG unfold [3]: 3.19 ± 0.083 kcal/mol

SAGGSAGGGGMMKTITIPLEELKAKLAKETGKPLTIEEIKEALKKEGIKLLSVDKEKGTITISESAGGSAGG [r6_767_JUSTAS]
folding stability dG unfold [1]: 2.4 ± 0.1 kcal/mol
folding stability dG unfold [2]: 1.73 ± 0.09 kcal/mol
folding stability dG unfold [3]: 2.16 ± 0.13 kcal/mol

SAGGSAGGGGSSMTIVDPKDVPFGQTFTVTTYAPGGKKISTTTLTVDVPPPVWRTDGNGKWFLESAGGSAGG [r6_487_JUSTAS]
folding stability dG unfold [1]: 0.163 ± 0.19 kcal/mol
folding stability dG unfold [2]: 0.28 ± 0.27 kcal/mol
folding stability dG unfold [3]: 0.4 ± 0.2 kcal/mol

SAGGSAGGGGVAEEVAALLKALGLKVKKIEVEVEEVPPDKKVARVKVTAELPTKKVTFELRVEVSAGGSAGG [r6_532_TrMRF]
folding stability dG unfold [1]: 1.97 ± 0.092 kcal/mol
folding stability dG unfold [2]: 3 ± 0.068 kcal/mol
folding stability dG unfold [3]: 2.76 ± 0.28 kcal/mol

SAGGSAGGGHMPVTKTVQLPGRTVTLTYYPEKGTVKITFPEDGTEKTVPISPSETIEDVIKKLSSAGGSAGG [r6_166_JUSTAS]
folding stability dG unfold [1]: 2.32 ± 0.069 kcal/mol
folding stability dG unfold [2]: 2.74 ± 0.036 kcal/mol
folding stability dG unfold [3]: 2.6 ± 0.061 kcal/mol

SAGGSAGGGIDLSNPEDIEEALKKSGIVGVFKVKIIPLPGGKWKKIIEPVKLLPKEELEKAGLISAGGSAGG [r6_402_TrMRF]
folding stability dG unfold [1]: 0.825 ± 0.043 kcal/mol
folding stability dG unfold [2]: 0.444 ± 0.12 kcal/mol
folding stability dG unfold [3]: 0.637 ± 0.095 kcal/mol

SAGGSAGGGIEPGKKVKAKATLILPGGKPIPFTATFTPDYVTLDLGKGSLTVPVEFIAHLEIEDSAGGSAGG [r6_132_TrMRF]
folding stability dG unfold [1]: 0.371 ± 0.052 kcal/mol
folding stability dG unfold [2]: 1.48 ± 0.079 kcal/mol
folding stability dG unfold [3]: 1.11 ± 0.053 kcal/mol

SAGGSAGGGKMEYDPKDGTMRWRDPANGIEHESRIEIPPIVIPADDLPKLREQFPPDMPVVLAGSAGGSAGG [r6_104_TrROS]
folding stability dG unfold [1]: 0.238 ± 0.034 kcal/mol
folding stability dG unfold [2]: 0.94 ± 0.062 kcal/mol
folding stability dG unfold [3]: 0.722 ± 0.043 kcal/mol

SAGGSAGGGKSFSIPVDDAVILDYDPVTKRLTILLPGPGVELVLPLDKVKRIEIDPETGTIHVESAGGSAGG [r6_313_TrMRF]
folding stability dG unfold [1]: 1.54 ± 0.022 kcal/mol
folding stability dG unfold [2]: 1.61 ± 0.02 kcal/mol
folding stability dG unfold [3]: 1.64 ± 0.073 kcal/mol

SAGGSAGGGMEPVTETITVPITTPEELEAVKKEAEARREKEGLVSYEISESPDGTVTITITKPVSAGGSAGG [r6_730_JUSTAS]
folding stability dG unfold [1]: 0.155 ± 0.1 kcal/mol
folding stability dG unfold [2]: 0.334 ± 0.071 kcal/mol
folding stability dG unfold [3]: 0.427 ± 0.34 kcal/mol

SAGGSAGGGMPISISITVTLSDGTVLEFTVTVPENAPDPASVAAALAAEIKAAHPDVAVTFTPASAGGSAGG [r6_132_JUSTAS]
folding stability dG unfold [1]: 0.849 ± 0.054 kcal/mol
folding stability dG unfold [2]: 1.72 ± 0.025 kcal/mol
folding stability dG unfold [3]: 1.53 ± 0.077 kcal/mol

SAGGSAGGGMVKVTLRITYYNSTGPYTSDRVFELPPDEVEALIEAIPPPPDATPEVEVEREPLGSAGGSAGG [r6_428_JUSTAS]
folding stability dG unfold [1]: 0.8 ± 0.042 kcal/mol
folding stability dG unfold [2]: 1.53 ± 0.15 kcal/mol
folding stability dG unfold [3]: 1.22 ± 0.14 kcal/mol

— the supplement of paper PMC12764529
